Experimental findings from publication PMC2832797 (Biochemistry, 2010) are described below.

This test addresses N-terminal His-tagged ubiquitin (15N-labelled) (UniProt P0CG48 1-76, 15N-labelled). Put plainly: NMR titration.

B1: N-terminal His-tagged human alpha4 (amino acid residues 1-222) (domain or fragment, UniProt P78318 1-222, looked up)
chain: MAAEDELQLPRLPELFETGRQLLDEVEVATEPAGSRIVQEKVFKGLDLLEKAAEMLSQLDLFSRNEDLEEIASTDLKYLLVPAFQGALTMKQVNPSKRLDHLQRAREHFINYLTQCHCYHVAEFELPKTMNNSAENHTANSSMAYPSLVAMASQRQAKIQRYKQKKELEHRLSAMKSAVESGQADDERVREYYLLHLQRWIDISLEEIESIDQEIKILRERD
As to B1, the Kd (commonly a measure of binding affinity in units of concentration) is greater than 100 µM.
